Results on 56 sequences are retold here after patent US20120149889.

One data set deals with CCHF Peptide 1 (envelope surface peptide) (Crimean-Congo hemorrhagic fever virus) (UniProt Q8JSZ3). Briefly: SPR.
UniProt Q8JSZ3, sequence (Q8JSZ3 whole entry, looked up): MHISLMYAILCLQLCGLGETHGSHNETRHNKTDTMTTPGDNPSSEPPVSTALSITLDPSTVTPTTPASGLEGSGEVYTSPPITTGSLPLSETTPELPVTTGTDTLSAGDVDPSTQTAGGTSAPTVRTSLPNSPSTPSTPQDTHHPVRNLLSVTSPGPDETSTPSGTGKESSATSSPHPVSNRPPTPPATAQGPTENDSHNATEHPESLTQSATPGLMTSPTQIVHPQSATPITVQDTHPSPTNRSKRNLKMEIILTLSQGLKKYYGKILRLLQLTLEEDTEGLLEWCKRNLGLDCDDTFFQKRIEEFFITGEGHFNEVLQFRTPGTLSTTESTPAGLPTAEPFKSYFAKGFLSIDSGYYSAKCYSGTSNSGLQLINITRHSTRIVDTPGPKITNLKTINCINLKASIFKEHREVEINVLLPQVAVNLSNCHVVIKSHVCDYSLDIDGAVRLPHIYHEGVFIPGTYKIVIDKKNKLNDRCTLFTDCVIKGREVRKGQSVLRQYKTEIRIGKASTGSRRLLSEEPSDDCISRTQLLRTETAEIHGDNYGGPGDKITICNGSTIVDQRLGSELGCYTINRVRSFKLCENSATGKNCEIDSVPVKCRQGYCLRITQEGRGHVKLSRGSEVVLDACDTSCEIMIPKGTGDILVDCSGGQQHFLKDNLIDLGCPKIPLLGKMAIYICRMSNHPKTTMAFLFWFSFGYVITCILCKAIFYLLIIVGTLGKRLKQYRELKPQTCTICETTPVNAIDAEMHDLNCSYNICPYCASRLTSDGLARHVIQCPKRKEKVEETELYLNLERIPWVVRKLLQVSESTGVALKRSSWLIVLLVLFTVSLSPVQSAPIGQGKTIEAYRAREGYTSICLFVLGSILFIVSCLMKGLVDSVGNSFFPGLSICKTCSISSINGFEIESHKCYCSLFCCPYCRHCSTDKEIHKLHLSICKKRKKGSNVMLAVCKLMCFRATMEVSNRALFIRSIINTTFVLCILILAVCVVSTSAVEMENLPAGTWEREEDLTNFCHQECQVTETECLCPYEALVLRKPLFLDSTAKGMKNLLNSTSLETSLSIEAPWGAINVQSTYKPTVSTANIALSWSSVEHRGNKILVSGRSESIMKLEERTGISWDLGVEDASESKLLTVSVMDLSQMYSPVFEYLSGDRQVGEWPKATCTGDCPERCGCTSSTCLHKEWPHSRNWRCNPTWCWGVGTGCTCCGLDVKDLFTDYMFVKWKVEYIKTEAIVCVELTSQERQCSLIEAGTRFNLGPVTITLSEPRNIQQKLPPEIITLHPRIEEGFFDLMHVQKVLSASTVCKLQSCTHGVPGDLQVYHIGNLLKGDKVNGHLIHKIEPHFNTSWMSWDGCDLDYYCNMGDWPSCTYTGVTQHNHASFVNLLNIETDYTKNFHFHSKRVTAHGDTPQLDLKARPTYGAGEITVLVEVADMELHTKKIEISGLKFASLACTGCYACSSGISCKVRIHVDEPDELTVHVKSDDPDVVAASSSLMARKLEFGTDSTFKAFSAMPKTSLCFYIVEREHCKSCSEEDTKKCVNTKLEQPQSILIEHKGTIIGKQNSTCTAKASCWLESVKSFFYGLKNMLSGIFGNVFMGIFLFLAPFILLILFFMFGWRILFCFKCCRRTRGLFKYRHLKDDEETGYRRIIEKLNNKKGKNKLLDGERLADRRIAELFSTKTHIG
Settings: not given
With “ATACGGGAGCCAACACCATGGTGACGGACCTTGAGAGCAAGACCGCTACGATTCAGAGCAGGTGTGACGGAT [C1-9F]”, the dissociation constant (Kd) (commonly the constant that tells how readily two partners part at equilibrium) stood at 8.13 pM.

For a further data set, the system named is outer membrane proteins (OMPs) (Rickettsia conorii). Briefly: ELONA.
Settings: not given
“ATCCGTCACACCTGCTCTTTGGTTAATCCGAATTTGCTTGCACTTAAGTTGTGCTGGTGTTGGCTCCCGTAT [R4-1R]”: the binding signal is 2.12 A405.

Sequence “ATACGGGAGCCAACACCAGCACAACTTAAGTGCAAGCAAATTCGGATTAACCAAAGAGCAGGTGTGACGGAT [R4-1F]” displayed a binding signal of 1.99 A405.

“ATCCGTCACACCTGCTCTCCAGATTTGGTGTTATGCTCTTGTTTGGCTTGGACTTGGTGTTGGCTCCCGTAT [R4-14R]”: the binding signal was determined as 2.05 A405.

Another data set relates to outer membrane proteins (OMPs) (Rickettsia rickettsii). Briefly: ELONA.
Settings: not given
For “ATCCGTCACACCTGCTCTACATCACATCTGACTGAGTCCATGGCGCTCTGTGTGTGGTGTTGGCTCCCGTAT [R3-39R]”, the binding signal turned out to be 2.05 A405.

“ATCCGTCACACCTGCTCTTTCACTAAGCTGACTTTTCACCTCGTCTTCGTGCCGTGGTGTTGGCTCCCGTAT [R3-40R]” gave a binding signal of 1.99 A405.

Consider “ATACGGGAGCCAACACCACACACAGAGCGCCATGGACTCAGTCAGATGTGATGTAGAGCAGGTGTGACGGAT [R3-39F]”, for which the binding signal came out at 2.12 A405.

The next data set deals with outer membrane proteins (OMPs) (Rickettsia belli). Nature of the data set: ELONA.
Settings: not given
Sequence “ATCCGTCACACCTGCTCTAAATAGATCACGCATAATGGCATTAGTATTAGTGTTGGTGTTGGCTCCCGTAT [R5-21bR]” came in with a binding signal of 1.89 A405.

The sequence “ATACGGGAGCCAACACCATAACAAATAACCACCCTCAATGCTAGATAGTGGCTTAGAGCAGGTGTGACGGAT [R5-23F]” came in with a binding signal of 2.93 A405.

Take “ATACGGGAGCCAACACCAGCACTGCAGTTAACATTTACGAAGAGGCTTTAATGCAGAGCAGGTGTGACGGAT [R5-39F]”: the binding signal was 1.95 A405.

The next data set concerns TBEV target (not specified) (Tick-borne encephalitis virus). Briefly: ELONA.
Settings: not given
As to “ATACGGGAGCCAACACCATTGACTTGGCCGTCTCTGACCCCTAGCACCCCTCGCAGAGCAGGTGTGACGGAT [TBEV-10F]”, the binding signal came to 1.95 A405.

“ATACGGGAGCCAACACCATCCTCCCGCGACGTCTGGAGAACAGCCTCTACTTTAAGAGCAGGTGTGACGGAT [TBEV-7F]” showed a binding signal of 2.02 A405.

“ATCCGTCACACCTGCTCTGTACGTTACTCGCCGATACGGAAGGGCGGTGCCGAGTGGTGTTGGCTCCCGTAT [TBEV-1R]” had a binding signal of 2.15 A405.

“ATACGGGAGCCAACACCACACACAGAGCGCCATGGACTCAGTCAGATGTGATGTAGAGCAGGTGTGACGGAT [TBEV-8F]” yielded a binding signal of 1.85 A405.

“ATCCGTCACACCTGCTCTGCGAGGGGTGCTAGGGGTCAGAGACGGCCAAGTCAATGGTGTTGGCTCCCGTAT [TBEV-10R]”: the binding signal came out at 1.82 A405.

“ATACGGGAGCCAACACCACCGCAGGAGTCCATCAGGGGTTGGCAGTCAGCGCTCAGAGCAGGTGTGACGGAT [TBEV-2F]” showed a binding signal of 2.31 A405.

For “ATCCGTCACACCTGCTCTTAAAGTAGAGGCTGTTCTCCAGACGTCGCGGGAGGATGGTGTTGGCTCCCGTAT [TBEV-7R]”, the binding signal is 1.97 A405.

As to “ATACGGGAGCCAACACCAGCCAATTATACAGGTAGGTCAAAAAAGTTTAGGGGAAGAGCAGGTGTGACGGAT [TBEV-4F]”, the binding signal is 1.88 A405.

In turn, “ATCCGTCACACCTGCTCTGGGCCAACGGACGGGATCGCGAGGCTAAGACGTCTCTGGTGTTGGCTCCCGTAT [TBEV-6R]” yielded a binding signal of 2.12 A405.

In turn, “ATACGGGAGCCAACACCACTCGGCACCGCCCTTCCGTATCGGCGAGTAACGTACAGAGCAGGTGTGACGGAT [TBEV-1F]” had a binding signal of 1.94 A405.

As to “ATCCGTCACACCTGCTCTTCCCCTAAACTTTTTTGACCTACCTGTATAATTGGCTGGTGTTGGCTCCCGTAT [TBEV-4R]”, the binding signal was 2.12 A405.

As for “ATCCGTCACACCTGCTCTGAGCGCTGACTGCCAACCCCTGATGGACTCCTGCGGTGGTGTTGGCTCCCGTAT [TBEV-2R]”, the binding signal was 2.6 A405.

With “ATCCGTCACACCTGCTCTGCGTTGGAGTATCTTCCCCGGTGCACTCCGTTCGTGTGGTGTTGGCTCCCGTAT [TBEV-3R]”, the binding signal was 1.91 A405.

The sequence “ATACGGGAGCCAACACCACACGAACGGAGTGCACCGGGGAAGATACTCCAACGCAGAGCAGGTGTGACGGAT [TBEV-3F]” returned a binding signal of 1.8 A405.

For “ATACGGGAGCCAACACCAGAGACGTCTTAGCCTCGCGATCCCGTCCGTTGGCCCAGAGCAGGTGTGACGGAT [TBEV-6F]”, the binding signal is 2.07 A405.

The sequence “ATCCGTCACACCTGCTCTCAACGGCCACTAGTCTATTCACTTAAAGGGGCATGGTGGTGTTGGCTCCCGTAT [TBEV-5R]” displayed a binding signal of 1.93 A405.

The sequence “ATACGGGAGCCAACACCACCATGCCCCTTTAAGTGAATAGACTAGTGGCCGTTGAGAGCAGGTGTGACGGAT [TBEV-5F]” returned a binding signal of 2.06 A405.

The sequence “ATCCGTCACACCTGCTCTACATCACATCTGACTGAGTCCATGGCGCTCTGTGTGTGGTGTTGGCTCCCGTAT [TBEV-8R]” had a binding signal of 2.43 A405.

In the next data set the test system is outer membrane proteins (OMPs) (Rickettsia typhi). Nature of the data set: ELONA.
Settings: not given
Sequence “ATCCGTCACACCTGCTCTTGCTTATATTTAATTTTTTTCCCAAACTAGTAAGATTGGTGTTGGCTCCCGTAT [R1-21R]” had a binding signal of 2.88 A405.

Regarding “ATACGGGAGCCAACACCACCAACGAATACTACCAGGCCTAGCACAATACACAACAGAGCAGGTGTGACGGAT [R1-27bF]”, the binding signal worked out at 2.62 A405.

On to “ATCCGTCACACCTGCTCTACAGTTAGAGCTTGCCGTATGCCTTTGTTAACATAATGGTGTTGGCTCCCGTAT [R1-30R]”, for which the binding signal stood at 2.85 A405.

The subject of a further data set is WNV envelope peptide (West Nile virus). Briefly: ELONA.
Settings: not given
In turn, “ATACGGGAGCCAACACCACCCCGTCGCCAAGCACTTGGCTGGGCTCTAACGGCCAGAGCAGGTGTGACGGAT [WNV 18F]” displayed a binding signal of 2 A405.

Turning to “ATACGGGAGCCAACACCATGTCAGGACCTCCATCGCCCGGGCCCGCCGCCGCTGAGAGCAGGTGTGACGGAT [WNV 16F]”, the binding signal turned out to be 2.45 A405.

In turn, “ATCCGTCACACCTGCTCTGCCGGACCATCCGATATCAGCTGTGGTGTTGGCTCCCGTAT [WNV 19R]” registered a binding signal of 2.18 A405.

Turning to “ATACGGGAGCCAACACCACCCGTGGCCTTCACCCAGCCAGGGGCCCCGTCTCTGAGAGCAGGTGTGACGGAT [WNV 20F]”, the binding signal is 2.54 A405.

Take “ATACGGGAGCCAACACCACAGCTGATATCGGATGGTCCGGCAGAGCAGGTGTGACGGAT [WNV 19F]”: the binding signal worked out at 2.73 A405.

As for “ATCCGTCACACCTGCTCTCAGCGGCGGCGGGCCCGGGCGATGGAGGTCCTGACATGGTGTTGGCTCCCGTAT [WNV 16R]”, the binding signal was determined as 2.25 A405.

“ATCCGTCACACCTGCTCTCAGAGACGGGGCCCCTGGCTGGGTGAAGGCCACGGGTGGTGTTGGCTCCCGTAT [WNV 20R]” yielded a binding signal of 2.47 A405.

Still in this data set, the particulars now being: also positive in lateral flow (FIG. 9C).
As for “ATCCGTCACACCTGCTCTGGCCGTTAGAGCCCAGCCAAGTGCTTGGCGACGGGGTGGTGTTGGCTCCCGTAT [WNV 18R]”, the binding signal worked out at 2.65 A405.

A further data set concerns CCHF envelope peptides (individual peptide not specified) (Crimean-Congo hemorrhagic fever virus). Briefly: ELONA.
Settings: not given
Consider “ATCCGTCACACCTGCTCTCCAAGGACACGTTACCGTATTGGCCCAACACTATGGTGTTGGCTCCCGTAT [C1-1/7R]”, for which the binding signal came out at 2.05 A405.

“ATCCGTCACACCTGCTCTCGGGACGCGAGCGGCCTGCGGGAACCAGGCGGGGGCTGGTGTTGGCTCCCGTAT [C3-6R]” registered a binding signal of 2.48 A405.

Sequence “ATCCGTCACACCTGCTCTGAATCGTAGCGGTCTTGCTCTCAAGGTCCGTCACCATGGTGTTGGCTCCCGTAT [C1-9R]” came in with a binding signal of 1.56 A405.

The sequence “ATACGGGAGCCAACACCATAGTGTTGGGCCAATACGGTAACGTGTCCTTGGAGAGCAGGTGTGACGGAT [C1-1/7F]” registered a binding signal of 1.9 A405.

Consider “ATACGGGAGCCAACACCATGGTGACGGACCTTGAGAGCAAGACCGCTACGATTCAGAGCAGGTGTGACGGAT [C1-9F]”, for which the binding signal worked out at 2.24 A405.

Sequence “ATACGGGAGCCAACACCACAGACACCGAATGAGCAACACAACAACGGGACCCGTAGAGCAGGTGTGACGGAT [C2-8F]” yielded a binding signal of 1.65 A405.

Sequence “ATACGGGAGCCAACACCAATGAGAGCAAAGATCCCAGGATACACTAATCCCTGTAGAGCAGGTGTGACGGAT [C1-3F]” gave a binding signal of 1.85 A405.

With “ATCCGTCACACCTGCTCTATACCAACGGGGGACGGTCTGAGCTAGTGACGCCCGTGGTGTTGGCTCCCGTAT [C3-7R]”, the binding signal was 1.5 A405.

“ATCCGTCACACCTGCTCTATGAGTCTATCCAGTTCTAAAAGTTCCGCTCTTTATTGGTGTTGGCTCCCGTAT [C1-1R]” gave a binding signal of 1.99 A405.

In turn, “ATCCGTCACACCTGCTCTGGGCAGCACTACCGGTGTCGTTGTGTTGGCATTTCTTGGTGTTGGCTCCCGTAT [C1-6R]” yielded a binding signal of 1.95 A405.

In turn, “ATCCGTCACACCTGCTCTACGGCCCTGCACCACTTATTCTAGGCAGTGTTCTTCTGGTGTTGGCTCCCGTAT [C1-10R]” showed a binding signal of 1.62 A405.

For the sequence “ATCCGTCACACCTGCTCTCCAAGGACACGTCACCGTATTGGCCCAACACTATGGTGTTGGCTCCCGTAT [C3-8R]”, the binding signal worked out at 1.48 A405.

Turning to “ATCCGTCACACCTGCTCTGCAAAGAGGTCGTAGTGCCGTGTCCGGTCGGATACCTGGTGTTGGCTCCCGTAT [C2-10R]”, the binding signal was 1.66 A405.

Take “ATACGGGAGCCAACACCACAGCTGACAATAGAAGGATATCCTGGGTACCGATGCAGAGCAGGTGTGACGGAT [C3-4F]”: the binding signal amounted to 2.67 A405.

As to “ATCCGTCACACCTGCTCTGCATCGGTACCCAGGATATCCTTCTATTGTCAGCTGTGGTGTTGGCTCCCGTAT [C3-4R]”, the binding signal amounted to 2.47 A405.

For the next data set, the system named is outer membrane proteins (OMPs) (Rickettsia parkeri). Nature of the data set: ELONA.
Settings: not given
The sequence “ATACGGGAGCCAACACCATAACGGTTCCCTTAATGCGCTACCCACACTATACAAGAGCAGGTGTGACGGAT [R2-14F]” returned a binding signal of 2.08 A405.

With “ATACGGGAGCCAACACCAGAAAATGAATACTTCCCAAGCTTGTCAAGCAAGTAAGAGCAGGTGTGACGGAT [R2-5F]”, the binding signal worked out at 1.95 A405.

Regarding “ATCCGTCACACCTGCTCTTTTCCTATGAATGGTAATCAATTAGAGTCTATATCTTGGTGTTGGCTCCCGTAT [R2-17R]”, the binding signal worked out at 2.05 A405.
